Target: tetranectin-apolipoprotein A-I fusion polypeptide precursor polypeptide

B1: IgA-protease protein from Neisseria gonorrhoeae (protein)
chain: ALVRDDVDYQIFRDFAENKGKFFVGATDLSVKNKRGQNIGNALSNVPMIDFSVADVNKRIATVVDPQYAVSVKHAKAEVHTFYYGQYNGHNDVADKENEYRVVEQNNYEPHKAWGASNLGRLEDYNMARFNKFVTEVAPIAPTDAGGGLDTYKDKNRFSSFVRIGAGRQLVYEKGVYHQEGNEKGYDLRDLSQAYRYAIAGTPYKDINIDQTMNTEGLIGFGNHNKQYSAEELKQALSQDALTNYGVLGDSGSPLFAFDKQKNQWVFLGTYDYWAGYGKKSWQEWNIYKKEFADKIKQHDNAGTVKGNGEHHWKTTGTNSHIGSTAVRLANNEGDANNGQNVTFEDNGTLVLNQNINQGAGGLFFKGDYTVKGANNDITWLGAGIDVADGKKVVWQVKNPNGDRLAKIGKGTLEINGTGVNQGQLKVGDGTVILNQKADADKKVQAFSQVGIVSGRGTLVLNSSNQINPDNLYFGFRGGRLDANGNDLTFEHIRNVDEGARIVNHNTDHASTITLTGKSLITNPNSLSVHSIQNDYDEDDYSYYYRPRRPIPQGKDLYYKNYRYYALKSGGRLNAPMPENGVAENNDWIFMGYTQEEARKNAMNHKNNRRIGDFGGFFDEENGKGHNGALNLNFNGKSAQKRFLLTGGANLNGKISVTQGNVLLSGRPTPHARDFVNKSSARKDAHFSKNNEVVFEDDWINRTFKAAEIAVNQSASFSSGRNVSDITANITATDNAKVNLGYKNGDEVCVRSDYTGYVTCNTGNLSDKALNSFDATRINGNVNLNQNAALVLGKAALWGKIQGQGNSRVSLNQHSKWHLTGDSQVHNLSLADSHIHLNNASDAQSANKYHTIKINHLSGNGHFHYLTDLAKNLGDKVLVKESASGHYQLHVQNKTGEPNQEGLDLFDASSVQDRSRLFVSLANHYVDLGALRYTIKTENGITRLYNPYAGNGRPVKPAP
With B1 the Cleavage activity was “Cleavage activity was in the expected range”.
